Laboratory results reported in the supplement of paper PMC10724198.
± gives the standard deviation of the averaged measurements.

System: Saccharomyces cerevisiae
Test: protein stability index of tFT-peptide fusion (C-terminal peptide) (PSI (0-1 scale)); higher = more stable (slower turnover)
Conditions: genetic background: wild type; temperature: 30 C
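Note: PSI is a weighted mean of sequencing reads over stability bins, variants kept only with over 10 reads, mCherry proximal and sfGFP distal, peptide attached via GGGS linker.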

Sequence	protein stability index
VYACGVDFNVRG	0.678 ± 0.094
VYRLYPLSPLLY	0.679 ± 0.12
VYVLTKSSMGRN	0.692 ± 0.048
WADLIPDSFGDM	0.741 ± 0.059
WADYLWFGLNGG	0.712 ± 0.028
WAGGGGGRVCGW	0.799 ± 0.11
WAGGSGRRIGCR	0.712 ± 0.0089
WARSLPHPISRR	0.803 ± 0.064
WASKVGSYICAE	0.671 ± 0.02
WCFSLGYFFFCR	0.585 ± 0.05
WCFVGLVNTCRI	0.617 ± 0.025
WCFVPLSFRLDS	0.71 ± 0.025
WCGGGGVACLLL	0.693 ± 0.0086
WCGTLVDRGCSL	0.554 ± 0.026
WCQREPSSKYKI	0.578 ± 0.054
WDGWPTGSGGTG	0.72654 ± 0.00043
WECGRVSVIRRC	0.594 ± 0.019
WESWGPDWLCVG	0.769 ± 0.035
WFGSGGRGWREF	0.713 ± 0.048
WFKSIREGKGSR	0.68 ± 0.044
WFNAGAGDLGSV	0.709 ± 0.033
WFPPLPPPPPPS	0.734 ± 0.028
WGCVGVGGLFSG	0.665 ± 0.017
WGECGVWVGLWG	0.709 ± 0.051
WGGGVGWSGACL	0.734 ± 0.02

Sequence	protein stability index
WGGRSGTWGLVG	0.803 ± 0.1
WGGTGALGTVRW	0.759 ± 0.028
WGGVGLRGGWDG	0.713 ± 0.047
WGGVGRLAGLLG	0.703 ± 0.021
WGGYLISLNLYN	0.561 ± 0.025
WGHFVGVWGRAG	0.664 ± 0.075
WGLGVFALKTLL	0.623 ± 0.034
WGRAGPSSPCSC	0.709 ± 0.088
WGRGWWEMVGRT	0.686 ± 0.0074
WGRIVRDFHCGG	0.614 ± 0.0083
WGRQSERILRST	0.606 ± 0.046
WGRRWRCAGRGG	0.656 ± 0.056
WGSSCQAEDVTN	0.737 ± 0.016
WGTGGGLGVGHV	0.726 ± 0.093
WGVCGVFLCLGV	0.572 ± 0.11
WGVGVGGRMRPH	0.707 ± 0.044
WGWSLARRFLSV	0.555 ± 0.037
WGYRLRGGGGQG	0.701 ± 0.064
WHFTPPPPPTSP	0.715 ± 0.011
WHGLLEWLAWRT	0.736 ± 0.078
WHRTGPFCGFPC	0.766 ± 0.17
WIIRATCAGVSL	0.528 ± 0.032
WKETGRGTISHK	0.699 ± 0.013
WKEVGGSRILLV	0.6033 ± 0.0031
WKKYTKTKKKKN	0.689 ± 0.021

Sequence	protein stability index
WLDDCVRVGMRI	0.6722 ± 0.0033
WLEVHVRERPGL	0.661 ± 0.035
WLFFVCEDAGGC	0.68 ± 0.021
WLPTTPLPPLSP	0.703 ± 0.018
WLVRRVSSGQFG	0.653 ± 0.062
WNCRILGLVMRG	0.695 ± 0.029
WNFVCGVFFATG	0.543 ± 0.056
WNPHFHALSWRL	0.684 ± 0.019
WPAPLPPTRPLP	0.722 ± 0.038
WPCGGLRFSLPY	0.674 ± 0.029
WPHGHVNTHRIG	0.737 ± 0.038
WPKNSTNHSWKW	0.744 ± 0.035
WPVPPASYPALS	0.728 ± 0.14
WQCRAPRFEKGV	0.696 ± 0.08
WQGLGGARGCML	0.691 ± 0.066
WRGEMGGSGGQA	0.713 ± 0.032
WRGLGWSDAGGG	0.654 ± 0.043
WRGRCGPVLGFC	0.659 ± 0.027
WRLVREGRMRGG	0.742 ± 0.031
WRRGIRAKIDSI	0.678 ± 0.015
WRRPRVLWVSSR	0.637 ± 0.0079
WRVFPVVSCSSS	0.6312 ± 0.0053
WSGKRAKGISEK	0.682 ± 0.04
WSGVFSCTLSIT	0.567 ± 0.038
WSPFSLISLSPP	0.725 ± 0.099

Sequence	protein stability index
WSSLSCACVVPF	0.726 ± 0.065
WSSTTISVQRGL	0.7 ± 0.089
WSSVSGEFRSLW	0.707 ± 0.035
WSVHGLGSVSIY	0.707 ± 0.014
WSYGHVPYDYPF	0.73 ± 0.022
WTLSDTRHVLPV	0.6683 ± 0.00084
WTSGCLEIFRRE	0.702 ± 0.033
WVESGGGCVGRI	0.706 ± 0.039
WVGSGRVWVKLG	0.708 ± 0.0092
WVGVGMRTNGLG	0.679 ± 0.072
WVLGGSWLRCRK	0.726 ± 0.014
WVNRFVFFSPST	0.615 ± 0.11
WVPGAAGFTGSL	0.74 ± 0.049
WVVRVMYTSSGK	0.556 ± 0.035
WWASFVGSFVGD	0.878 ± 0.15
WWEFSCGFVVGG	0.671 ± 0.098
WWGSGGREPGGS	0.739 ± 0.05
WWSASGGQDVLK	0.67 ± 0.061
WYHALTLASWLS	0.577 ± 0.021
YAGARGPMNRGS	0.701 ± 0.015
YARLAWDFRRSP	0.737 ± 0.019
YATAICRSGCLK	0.699 ± 0.037
YCAMVSVGVVGG	0.534 ± 0.0076
YCGGRWGGWEIG	0.684 ± 0.0037
YCHLNLHGCKGC	0.636 ± 0.023

Sequence	protein stability index
YCTAGVCVKAGR	0.765 ± 0.027
YCVCACCASLLA	0.538 ± 0.025
YDELEKADKQEE	0.6723 ± 0.0061
YEEGRGEWIKKI	0.632 ± 0.051
YESISGLGHLSG	0.6962 ± 0.005
YEYPRVTFSPQT	0.7878 ± 0.005
YFESKWKYAGVR	0.699 ± 0.0074
YFFDYGVSRVLS	0.584 ± 0.015
YFSSGGITVSLC	0.664 ± 0.066
YFVSCACSSYFV	0.601 ± 0.02
YGAVRFTLIPLQ	0.639 ± 0.024
YGCSLFCPDCSI	0.794 ± 0.15
YGFLRSWCICDT	0.729 ± 0.098
YGGDMHGNNFSG	0.701 ± 0.011
YGGRGFKGYYGG	0.776 ± 0.02
YGIGNVNTGRGP	0.703 ± 0.011
YGNTQFLTQTWY	0.705 ± 0.021
YGSYVVNSLYLS	0.616 ± 0.0097
YGYMTNNCLLSI	0.649 ± 0.041
YIHGFRLFGCVD	0.668 ± 0.031
YKGKFTILESLK	0.665 ± 0.027
YKVKADRVRHRR	0.692 ± 0.013
YLALSAPKERTH	0.703 ± 0.033
YLFSTGSTLHSH	0.818 ± 0.088
YLPKLSTYRLLR	0.654 ± 0.032

Sequence	protein stability index
YLPRPPPTTALL	0.74 ± 0.087
YLQESLVEMWIV	0.65 ± 0.056
YLSFYRLLDSST	0.664 ± 0.007
YLSPSTPLPVVL	0.64 ± 0.1
YLTCTLLSQPIY	0.542 ± 0.027
YLVGVRDSFALR	0.715 ± 0.02
YMGGGGASGAPA	0.667 ± 0.047
YNKKKKRYKKKF	0.72 ± 0.0076
YNMGILASQGCG	0.665 ± 0.046
YNSRKQKKREKK	0.706 ± 0.027
YPIFSPFSLPAL	0.59 ± 0.0073
YPLPPPRPPCLP	0.664 ± 0.063
YPYRKRTIGVRT	0.595 ± 0.015
YQRENYERKGYR	0.681 ± 0.067
YQVTEEKLIMTQ	0.674 ± 0.036
YREVGGVAERRR	0.695 ± 0.044
YRGSNWEGDTPS	0.667 ± 0.054
YRPPPLSPPSPP	0.695 ± 0.013
YRSVLGREEQLI	0.7 ± 0.057
YRYGVSWFDWRI	0.784 ± 0.058
YSEKFKDRFKED	0.67 ± 0.015
